According to patent US20220340642A1 (Kyowa Kirin, published 2022):

T1: DcR3 FL-Fc (R&D Systems, Inc.) (human, UniProt O95407 30-300)
T1 construct: Bought product made in insect cells; also called DcR3-Fc (R&D Systems, Inc.); DcR3 FL-Fc (IgG1)
T1 sequence: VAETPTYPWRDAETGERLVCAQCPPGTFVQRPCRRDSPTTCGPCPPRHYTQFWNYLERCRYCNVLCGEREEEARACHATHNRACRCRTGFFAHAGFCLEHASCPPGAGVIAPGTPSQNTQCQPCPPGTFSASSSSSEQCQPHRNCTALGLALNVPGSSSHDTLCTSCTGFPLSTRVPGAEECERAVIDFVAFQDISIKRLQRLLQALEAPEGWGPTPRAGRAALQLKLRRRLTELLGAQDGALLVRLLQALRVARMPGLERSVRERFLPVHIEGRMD

T2: soluble recombinant of human FasL (His6, Pro134-Leu281) (UniProt P48023 134-281)
T2 chain: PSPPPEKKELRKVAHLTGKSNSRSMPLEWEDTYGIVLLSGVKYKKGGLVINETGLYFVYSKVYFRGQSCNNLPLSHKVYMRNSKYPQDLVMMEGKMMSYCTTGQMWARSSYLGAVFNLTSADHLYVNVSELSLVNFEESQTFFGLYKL

T3: soluble recombinant of human LIGHT (His10, GS linker, Asp74-Val240)
T3 chain: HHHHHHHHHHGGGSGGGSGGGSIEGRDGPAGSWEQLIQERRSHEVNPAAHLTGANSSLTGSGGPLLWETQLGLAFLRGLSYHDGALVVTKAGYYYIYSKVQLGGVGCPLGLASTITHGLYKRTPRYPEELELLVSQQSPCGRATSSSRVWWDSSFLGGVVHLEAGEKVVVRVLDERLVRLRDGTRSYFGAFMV

T4: soluble recombinant of human TL1A (His6, GS linker, Leu72-Leu251) (UniProt O95150 72-251)
T4 chain: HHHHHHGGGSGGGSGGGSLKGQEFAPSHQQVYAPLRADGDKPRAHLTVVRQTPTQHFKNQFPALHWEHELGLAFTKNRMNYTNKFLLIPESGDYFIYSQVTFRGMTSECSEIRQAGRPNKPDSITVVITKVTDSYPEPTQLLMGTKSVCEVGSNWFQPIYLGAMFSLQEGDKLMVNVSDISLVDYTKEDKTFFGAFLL

B1: soluble recombinant of human TL1A (His6, GS linker, Leu72-Leu251) (ligand)
chain: HHHHHHGGGSGGGSGGGSLKGQEFAPSHQQVYAPLRADGDKPRAHLTVVRQTPTQHFKNQFPALHWEHELGLAFTKNRMNYTNKFLLIPESGDYFIYSQVTFRGMTSECSEIRQAGRPNKPDSITVVITKVTDSYPEPTQLLMGTKSVCEVGSNWFQPIYLGAMFSLQEGDKLMVNVSDISLVDYTKEDKTFFGAFLL
notes: also called His6-TL1A; hTL1A
B2: soluble recombinant of cynomolgus monkey TL1A (His6, GS linker, Leu72-Leu251) (ligand)
chain: HHHHHHGGGSGGGSGGGSLKGQEFAPSHQQVYAPLRADGDKPRAHLTVVRQTPTQHLKNQFPALHWEHELGLAFTKNRMNYTNKFLLIPESGDYFVYSQVTFRGMTSECSEIRQAGRPNKPDSITVVITKVTDSYPEPTQLLMGTKSVCEVGSNWFQPIYLGAMFSLQEGDKLMVNVSDISLVDYTKEDKTFFGAFLL
notes: also called His6-cynoTL1A
B3: soluble recombinant of mouse FasL (His6, Pro132-Leu279) (ligand)
chain: HHHHHHPSTPSEKKEPRSVAHLTGNPHSRSIPLEWEDTYGTALISGVKYKKGGLVINETGLYFVYSKVYFRGQSCNNQPLNHKVYMRNSKYPEDLVLMEEKRLNYCTTGQIWAHSSYLGAVFNLTSADHLYVNISQLSLINFEESKTFFGLYKL
B4: soluble recombinant of mouse TL1A (His6, GS linker, Ile94-Leu270) (ligand)
chain: HHHHHHGGGSGGGSGGGSITEERSEPSPQQVYSPPRGKPRAHLTIKKQTPAPHLKNQLSALHWEHDLGMAFTKNGMKYINKSLVIPESGDYFIYSQITFRGTTSVCGDISRGRRPNKPDSITMVITKVADSYPEPARLLTGSKSVCEISNNWFQSLYLGATFSLEEGDRLMVNVSDISLVDYTKEDKTFFGAFLL
B5: soluble recombinant of human FasL (His6, Pro134-Leu281) (ligand)
chain: PSPPPEKKELRKVAHLTGKSNSRSMPLEWEDTYGIVLLSGVKYKKGGLVINETGLYFVYSKVYFRGQSCNNLPLSHKVYMRNSKYPQDLVMMEGKMMSYCTTGQMWARSSYLGAVFNLTSADHLYVNVSELSLVNFEESQTFFGLYKL
B6: soluble recombinant of cynomolgus monkey FasL (His6, Pro133-Leu280) (ligand)
chain: PSPPPEKKEQRKVAHLTGKPNSRSMPLEWEDTYGIVLLSGVKYKKGGLVINETGLYFVYSKVYFRGQSCTNLPLSHKVYMRNSKYPQDLVMMEGKMMSYCTTGQMWAHSSYLGAVFNLTSADHLYVNVSELSLVNFEESQTFFGLYKL
notes: also called His6-cynoFasL
B7: soluble recombinant of human LIGHT (His10, GS linker, Asp74-Val240) (ligand)
chain: HHHHHHHHHHGGGSGGGSGGGSIEGRDGPAGSWEQLIQERRSHEVNPAAHLTGANSSLTGSGGPLLWETQLGLAFLRGLSYHDGALVVTKAGYYYIYSKVQLGGVGCPLGLASTITHGLYKRTPRYPEELELLVSQQSPCGRATSSSRVWWDSSFLGGVVHLEAGEKVVVRVLDERLVRLRDGTRSYFGAFMV
B8: soluble recombinant of cynomolgus monkey LIGHT (His10, GS linker, Asp74-Val240) (ligand)
chain: HHHHHHHHHHGGGSGGGSGGGSIEGRDGHGGSWEQLIQERRSHQNNPAAHLTGANSSLTGSGGPLLWETQLGLAFLRGLDYHDGALVANKAGYYYIYSKVQLGGVGCPLGLASTITHGLYKRTPRYPEELELLVSQQSPCGRATSNSRVWWDSSFLGGVVHLEVGEEVVVRVLDERLVRLRDGTRSYFGAFMV
B9: soluble recombinant of mouse LIGHT (His10, GS linker, Asp72-Val239) (ligand)
chain: HHHHHHHHHHGGGSGGGSGGGSIEGRDGGKGSWEKLIQDQRSHQANPAAHLTGANASLIGIGGPLLWETRLGLAFLRGLTYHDGALVTMEPGYYYVYSKVQLSGVGCPQGLANGLPITHGLYKRTSRYPKELELLVSRRSPCGRANSSRVWWDSSFLGGVVHLEAGEEVVVRVPGNRLVRPRDGTRSYFGAFMV
B10: DcR3 FL-Fc (R&D Systems, Inc.) (Fc fusion)
chain: VAETPTYPWRDAETGERLVCAQCPPGTFVQRPCRRDSPTTCGPCPPRHYTQFWNYLERCRYCNVLCGEREEEARACHATHNRACRCRTGFFAHAGFCLEHASCPPGAGVIAPGTPSQNTQCQPCPPGTFSASSSSSEQCQPHRNCTALGLALNVPGSSSHDTLCTSCTGFPLSTRVPGAEECERAVIDFVAFQDISIKRLQRLLQALEAPEGWGPTPRAGRAALQLKLRRRLTELLGAQDGALLVRLLQALRVARMPGLERSVRERFLPVHIEGRMD

What follows are binders tested against T1, DcR3 FL-Fc (R&D Systems, Inc.) (assay: SPR, binder captured).
Method: Regarding each of the various wild-type DcR3 controls and the DcR3 variants shown in Table 9, the binding activities to DcR3 ligands (LIGHT, TL1A, FasL) were analyzed by the SPR method using BIAcore T-100 (GE Healthcare). As the buffer, HBS-EP+Buffer was used.
After 10,000 RU of anti-human antibodies were immobilized to Series S Sensor Chip CM5 using Human Antibody Capture Kit (GE Healthcare), various wild-type DcR3 controls and DcR3 variants were injected at the flow rate of 10 μL/min for 30 seconds and captured. Meanwhile, the buffer containing no protein was injected into reference flow cells. Thereafter, as an analyte, DcR3 ligands of a human, a cynomolgus monkey or a mouse diluted to 0.08 to 80 nmol/L were injected at 10 μL/min for 2 minutes to monitor the binding, and subsequently the buffer was injected for 3 minutes to monitor dissociation. Then, 3 mol/L magnesium chloride was injected at 20 μL/min for 1 minute to perform a regeneration reaction. […] As a result of measurement, except for mouse LIGHT for which a trimer could not be produced, it was confirmed that various wild-type DcR3 controls and DcR3 variants bind to each DcR3 ligand of a human, a cynomolgus monkey or a mouse.
A Kd of 0.89 nM, a koff of 0.00035 s⁻¹ and a kon of 390000 M⁻¹ s⁻¹ were found for B1 in this work. A Kd of 0.92 nM, a koff of 0.00035 s⁻¹ and a kon of 380000 M⁻¹ s⁻¹ were found for B2 in this work. A Kd of 65 nM, a koff of 0.0097 s⁻¹ and a kon of 150000 M⁻¹ s⁻¹ were found for B3 in this work. A Kd of 0.58 nM, a koff of 0.00049 s⁻¹ and a kon of 840000 M⁻¹ s⁻¹ were found for B4 in this work. A Kd of 1.3 nM, a koff of 0.0004 s⁻¹ and a kon of 310000 M⁻¹ s⁻¹ were found for B5 in this work. A Kd of 1.1 nM, a koff of 0.00033 s⁻¹ and a kon of 300000 M⁻¹ s⁻¹ were found for B6 in this work. A Kd of 1.1 nM, a koff of 0.0004 s⁻¹ and a kon of 380000 M⁻¹ s⁻¹ were found for B7 in this work. A Kd of 1.2 nM, a koff of 0.00038 s⁻¹ and a kon of 310000 M⁻¹ s⁻¹ were found for B8 in this work. B9: no binding (tested: 0.08 to 80 nmol/L).

Molecular target: T2, soluble recombinant of human FasL …
Assay: BIAcore SPR
Method in brief: (§1)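 Surface plasmon resonance was used to analyse how each test molecule bound to soluble recombinant His-tagged LIGHT, TL1A or FasL of human or cynomolgus monkey origin. Runs took place in HBS-EP+ Buffer on a BIAcore T-100 or T-200 instrument (GE Healthcare). The dissociation constant (Kd, nM) was obtained from these measurements.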
A Kd of 0.93 nM was found for B10 in this work.

Molecular target: T3, soluble recombinant of human LIGHT …
Assay: BIAcore SPR
Method in brief: as §1
A Kd of 0.21 nM was found for B10 in this work.

Molecular target: T4, soluble recombinant of human TL1A …
Assay: BIAcore SPR
Method in brief: as §1
A Kd of 0.21 nM was found for B10 in this work.
